# Assay results: article PMC3193538
# [ ]: non-standard residue; d: D form.
# Target: human integrin protein αvβ3 (human) (UniProt P06756)
# Test: SPR
row,Binder,koff
1,"cyclo(RGD[dF]C) (also: conjugated to G5 PAMAM dendrimer, 3 peptides per dendrimer) [G5-3RGD (generation 5 PAMAM dendrimer displaying 3 cyclic RGD peptides)]",0.00136 s⁻¹
2,"cyclo(RGD[dF]C) (also: conjugated to G5 PAMAM dendrimer, 2 peptides per dendrimer) [G5-2RGD (generation 5 PAMAM dendrimer displaying 2 cyclic RGD peptides)]",0.00132 s⁻¹
3,"cyclo(RGD[dF]C) (also: conjugated to G5 PAMAM dendrimer, 10 peptides per dendrimer) [G5-10RGD (generation 5 PAMAM dendrimer displaying 10 cyclic RGD peptides)]",0.00254 s⁻¹
4,"cyclo(RGD[dF]C) (also: conjugated to G5 PAMAM dendrimer, 7 peptides per dendrimer) [G5-7RGD (generation 5 PAMAM dendrimer displaying 7 cyclic RGD peptides)]",0.00155 s⁻¹
